Laboratory results reported in patent publication US20180305451A1.

Assays:
[1] = molecular target: putative molecular counterpart of HIDE1 on T cells; experiment: FACS, tetramer on CD4+ T cells activated for 72 h
[2] = molecular target: putative molecular counterpart of HIDE1 on T cells; experiment: flow cytometry on H9 human T cell line, live singlets; PE tetramer at 3 µg/well (60 µg/ml)
[3] = molecular target: putative molecular counterpart of HIDE1 on T cells; experiment: flow cytometry on U937 human myeloid cell line, live singlets; PE tetramer at 3 µg/well (60 µg/ml); the text calls this no binding; Tetramer-EGFR in the same box reads 79.6
[4] = molecular target: putative molecular counterpart of HIDE1 on T cells; experiment: flow cytometry on H9 human T cell line, live singlets; negative control PE tetramer at 3 µg/well (60 µg/ml)

Row | fold increase in the Geo Mean compared to EGFR negative control [1] | Geometric Mean (B2-A) [2] | Geometric Mean (B2-A) [3] | Geometric Mean (B2-A) [4] | Substance
1 | 3 fold | 731 | 86.2 | – | HIDE1 tetramer (from UniProt A8MVS5 20-117)
2 | – | – | – | 82.1 | Tetramer-EGFR (from UniProt P00533)
